± gives the uncertainty stated by the source.
Assay: amyloid nucleation score (Sup35N fusion, yeast selection) (log enrichment); library NNK2; higher = more nucleation; inactive = no reads after selection
How it was run: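 For the nucleation score, DiMSum gave the log enrichment of output over input reads, centred on the mode score of non-aggregating sequences. Psi-negative yeast expressing Sup35N fused to peptides of 20 random codons were induced with 100 μM copper sulfate for 24 hours and grown 7 days at 30°C on medium lacking adenine and uracil. Input and output plasmid inserts were Illumina-sequenced, and sequences with under 100 input reads were excluded.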

| Substance | amyloid nucleation score |
| --- | --- |
| EFWANRYGNHPLLGIHHCSP | 0.135 ± 0.77 |
| EGCHVGNLDCLPSETATVSV | 0.143 ± 0.79 |
| EGIVSMFVIRVYV | 0.63 ± 0.46 |
| EGRHNV | inactive |
| EGSNNVVVRDSAVYQVSGEM | -0.375 ± 1.1 |
| EHHYI | -0.202 ± 1 |
| EHVVSSRRLYLQGDILLNSQ | inactive |
| EICLDAITVVPLHGSIRLTV | 0.764 ± 0.25 |
| EIEEYWGV | -0.125 ± 0.63 |
| EIFAGICSSLAFKGHGRKSG | 6.29 ± 0.065 |
| EILLR | 0.269 ± 0.8 |
| EILRSGMSCIWVLYDFIGI | -0.437 ± 1 |
| EISAMVAL | -1.06 ± 0.54 |
| EIVLFFCPVVKCME | 3.08 ± 0.098 |
| EIVQFLLHMYGSVREAMVAL | -1.05 ± 0.56 |
| EKIFPLMGVKN | inactive |
| EKNTMDF | 1.64 ± 0.19 |
| EKRMNLVHYREYLPPFKRSN | -0.403 ± 1 |
| ELCPAT | 0.219 ± 0.3 |
| ELCRCITFGLVCTFACYWVC | 0.592 ± 0.2 |
| ELLQVEYNHHDSKEFMLVMI | 0.239 ± 0.43 |
| ELPGPHSGVTPPACEWSTHP | 0.422 ± 0.24 |
| ELRISPPDNRLWDPQ | 0.183 ± 1 |
| ELTSLQVMLSNDEMMGGRVN | 0.064 ± 0.3 |
| ELWRYDINIERYKSTRSVYH | 3.08 ± 0.055 |
| EMGVGSYSGRCATSGGSNLQ | 0.929 ± 0.27 |

| Substance | amyloid nucleation score |
| --- | --- |
| EMSVRPGVSRKIWS | 0.43 ± 0.49 |
| ENDMLTYYSLLFYWIKIVSY | inactive |
| ENGAKVLVIVYKGYPLVPWV | -0.089 ± 0.46 |
| ENKILMGAWEVFWTYSEHPW | inactive |
| ENYFCSYWFCFSWALG | 6.362 ± 0.062 |
| EPDELPYLLKASLMSLGHGP | 4.64 ± 0.073 |
| EPGRRSYSWFCITRVFVMR | -0.171 ± 1 |
| EPLVKYPEYSFPSMVCMPSI | -0.478 ± 0.64 |
| EQIGQ | 2.92 ± 0.089 |
| EQRGLASCLTIHHSRWCYTK | 0.025 ± 0.33 |
| ERFRIGTCSIRCSYILGLRR | -0.898 ± 0.54 |
| ERSNSRVVDL | -0.539 ± 0.44 |
| ERVQMFQIRVQSAYVVFGVS | 4.75 ± 0.077 |
| ESADQWAVTMVGRHFYLVLR | 0.294 ± 1.1 |
| ESFLDINGVLRLRRLYVQSQ | 0.587 ± 0.56 |
| ESMGGEYQGGVFVG | 0.448 ± 0.38 |
| ESQNECVGYNMLDCMKLSRG | 4.052 ± 0.037 |
| ESSVITGLWHV | -0.081 ± 0.8 |
| ESSYVRIQ | 0.13 ± 0.4 |
| ESTLRVMGRKAISSGLMCIA | 0.269 ± 0.28 |
| ESTWVCIFSRVLYGGYCGDQ | 0.244 ± 0.33 |
| ETHYPPQ | 0.033 ± 0.32 |
| ETLPLNIILYACGEPHWFLL | -0.407 ± 0.29 |
| ETMNA | 1.38 ± 0.16 |
| ETRRSYV | 0.563 ± 0.38 |
| ETVLFYSV | inactive |

| Substance | amyloid nucleation score |
| --- | --- |
| EVAEQH | 0.426 ± 0.16 |
| EVELALGGSELGGVVSWLM | 1.77 ± 0.27 |
| EVHLEVLTNCKKV | 5.05 ± 0.051 |
| EVIANWLENGYYVSKTVFVD | -0.026 ± 0.29 |
| EVLARR | 0.611 ± 0.46 |
| EVMCDAKLAGCVTSRPWLSR | 0.925 ± 0.34 |
| EVMEFSNDFSRIFFAFKGFV | -0.665 ± 0.78 |
| EVNRAPNVSIVYRRNSGTAD | -0.154 ± 0.4 |
| EVRSALYAYEGYLRVFRSFR | 0.819 ± 0.46 |
| EVSQGLDSILYLWYDEWDSA | -0.608 ± 0.31 |
| EVVLSAILQHYMSFVSGDDL | -0.201 ± 0.41 |
| EWCQFIR | -0.199 ± 0.19 |
| EWCQKGSAEIRASRCQ | 0.58 ± 0.18 |
| EWVYFLCSFHPSIDFLNISD | 5.62 ± 0.076 |
| EYMAITSFQKLFPHWFLSTE | inactive |
| EYRLFCCWE | 6.04 ± 0.072 |
| EYSMHTWCRYKEDFSRGASG | 2.98 ± 0.096 |
| EYSPCPSCT | 3.966 ± 0.037 |
| EYSTFPRRSDRSEIHFSINL | 3.47 ± 0.12 |
| EYVVSLHVFRLHIKLKIFRV | -0.09 ± 0.65 |
| EYYINFVNNTFCVDSLRSLD | 5.068 ± 0.035 |
| FAEFKVQIYLSWLYPEIPVN | -0.455 ± 1.1 |
| FAIHLKLMYVGTDFSNVRDI | -1.15 ± 0.76 |
| FAKIRGLITFVLQMWVTVYV | -0.278 ± 0.45 |
| FANGRFMNPSHGLYSLPLKR | 0.09 ± 0.51 |
| FAPRSKPLRSLFEGLLF | 0.495 ± 0.57 |

| Substance | amyloid nucleation score |
| --- | --- |
| FASFVSIGRVVLLYSPSCYQ | 5.71 ± 0.059 |
| FASSEVYTGVSYIIHVSVYS | -0.714 ± 1 |
| FCDVQDFAVLSGVELLNLSY | -0.751 ± 0.39 |
| FCELLIVAVLLQGDSLKPQS | 0.485 ± 0.36 |
| FCFFSLVRLYKGYRSSINLA | inactive |
| FCHCFRGYARDHHRMTQLGN | -0.674 ± 0.76 |
| FCKVGFALLGVNQDVLYEMS | -0.714 ± 1 |
| FCMNTQH | 5.288 ± 0.042 |
| FCMVGLCMCGRQEMCGSTDS | 5.99 ± 0.062 |
| FCRSYCVLVYLWSPYVTGSK | 0.349 ± 0.5 |
| FCSFSMFRLAS | 0.606 ± 0.8 |
| FCYCLIKGCMLEGLSNYSCD | -0.613 ± 1.1 |
| FCYIDGLGYSRFNMHAEPSG | -0.326 ± 0.48 |
| FDALRIFVPVPYRRWSSR | 1.52 ± 0.28 |
| FDLNAREHYRASRGDTGTGH | 1.16 ± 0.68 |
| FDLNVVDIFTLCMRKRYTME | inactive |
| FDPLTFFGHRYCMQDMQLSD | -0.027 ± 0.32 |
| FDSEQLIRYD | -0.909 ± 1.1 |
| FDTASTVDSVRIRKTKSSQ | inactive |
| FDVSFILSL | -1.34 ± 1 |
| FDWMI | 0.926 ± 0.28 |
| FECKCKVYTPAWGCHQYLIL | inactive |
| FECKVVILKCRLGYIFGANN | 1.26 ± 0.16 |
| FEFYLIARIFCPKGLLCESS | inactive |
| FEGLWQTFTMSLQGNLKYIF | -0.4 ± 0.74 |
| FEGQA | -1.8 ± 0.54 |

| Substance | amyloid nucleation score |
| --- | --- |
| FEWSTGCG | inactive |
| FEYIVVESVCRSWWNLVS | -0.051 ± 0.55 |
| FEYYIDPRK | -1.27 ± 0.61 |
| FFFVWESNPSIWDGTFTVEV | 0.21 ± 0.46 |
| FFISLDRVMLTGLKLTCPLG | -0.266 ± 1.1 |
| FFIWKVLDWHLNSRSYRWFG | -0.325 ± 0.76 |
| FFKGLSKSIQVGL | -1.06 ± 0.56 |
| FFLLVCVDGKTRRVD | 0.8 ± 0.15 |
| FFLNVFDIMRILLYN | inactive |
| FFLSNWAAF | 0.234 ± 0.55 |
| FFLSRFLV | -0.27 ± 0.79 |
| FFSDVSLVQYHLTLRFLMAY | -1.69 ± 0.62 |
| FFSGGIILHYSYPTWEWYRS | 2.92 ± 0.098 |
| FFSLSQQYSRSVIVYAKLHL | -0.98 ± 0.54 |
| FFTHTWLRRLKTLCVSFVPK | -0.516 ± 0.45 |
| FFTQGSCDTILRGLAFFTPR | -0.26 ± 1 |
| FFVDMSYPGSWNICYLTRFC | inactive |
| FFVESRSCSGYKMMKRCLDV | 1.54 ± 0.15 |
| FFVFGSWPHSSQGEGSLHKG | 0.387 ± 0.8 |
| FFVKTLFEGSLDVSSNSTFF | -0.304 ± 1.1 |
| FFYALGYRISDAMEIRRVGS | 2.35 ± 0.059 |
| FFYWL | inactive |
| FFYWLAMIW | -0.582 ± 0.63 |

From the supplement of paper PMC12042874
